From US20230303994

Biological target: pre-pro-human insulin

Protein | Activity PPI cleavage | Selectivity [%]
trypsin variant SEQ ID NO: 52 (protein) IVGGYTCAANSIPYQVSLNSGSHRCGGSLINSQWVVSAAHCYKLRIQVRLGEHNIDVLEGNEQFINAAKIITHPNFNGNTLDNDIMLIKLSSPATLNSRVATVSLPRSCAAAGTECLISGWGNTKSSGSSYPSLLQCLKAPVLSDSSCKSSYPGQITGNMICVGFLEGGKDACQGDSGGPVVCNGQLQGIVSSGYGCAQKNKPGVYTKVCNYVNWIQQTIAAN | yes | >90
trypsin variant SEQ ID NO: 54 (protein) IVGGYTCAANSIPYQVSLNSGSHRCGGSLINSQWVVSAAHCYKSRIQVRLGEHNIAVLEGNEQFINAAKIITHPNFNGNTLDNDIMLIKLSSPATLNSRVATVSLPRSCAAAGTECLISGWGNTKSSGSSYPSLLQCLKAPVLSDSSCKSSYPGQITGNMICVGFLEGGKDACQGDSGGPVVCNGQLQGIVSSGYGCAQKNKPGVYTKVCNYVNWIQQTIAAN | yes | >90
trypsin variant SEQ ID NO: 7 (protein) IVGGYTCAANSIPYQVSLNSGSHRCGGSLINSQWVVSAAHCYKSRIQVRLGEHNIDVLEGNEQFINAAKIITHPNFNGNTLDNDIMLIKLSSPATLNSWVATVSLPRSCAAAGTECLISGWGNTKSSGSSYPSLLQCLKAPVLSDSSCKSSYPGQITGNMICVGFLEGGKDACQGDSGGPVVCNGQLQGIVSSGYGCAQKNKPGVYTKVCNYVNWIQQTIAAN | yes | >90
trypsin variant SEQ ID NO: 60 (protein) IVGGYTCAANSIPYQVSLNSGSHRCGGSLINSQWVVSAAHCYKSRIQVRLGEHNIDVLEGNEQFINAAKIITHPNFNGNTLDNDIMLIKLSSPATLNSRVATVSLPSSCAAAGTECLISGWGNTKSSGSSYPSLLQCLKAPVLSDSSCKSSYPGQITGNMICVGFLEGGKDACQGDSGGPVVCNGQLQGIVSSGYGCAQKNKPGVYTKVCNYVNWIQQTIAAN | yes | >90
trypsin variant SEQ ID NO: 61 (protein) IVGGYTCAANSIPYQVSLNSGSHRCGGSLINSQWVVSAAHCYKSRIQVRLGEHNIDVLEGNEQFINAAKIITHPNFNGNTLDNDIMLIKLSSPATLNSRVATVSLPDSCAAAGTECLISGWGNTKSSGSSYPSLLQCLKAPVLSDSSCKSSYPGQITGNMICVGFLEGGKDACQGDSGGPVVCNGQLQGIVSSGYGCAQKNKPGVYTKVCNYVNWIQQTIAAN | yes | >80
trypsin variant SEQ ID NO: 59 (protein) IVGGYTCAANSIPYQVSLNSGSHRCGGSLINSQWVVSAAHCYKSRIQVRLGEHNIDVLEGNEQFINAAKIITHPNFNGNTLDNDIMLIKLSSPATLNSRVATVSLPGSCAAAGTECLISGWGNTKSSGSSYPSLLQCLKAPVLSDSSCKSSYPGQITGNMICVGFLEGGKDACQGDSGGPVVCNGQLQGIVSSGYGCAQKNKPGVYTKVCNYVNWIQQTIAAN | yes | >90
trypsin variant SEQ ID NO: 55 (protein) IVGGYTCAANSIPYQVSLNSGSHRCGGSLINSQWVVSAAHCYKSRIQVRLGEHNIWVLEGNEQFINAAKIITHPNFNGNTLDNDIMLIKLSSPATLNSRVATVSLPRSCAAAGTECLISGWGNTKSSGSSYPSLLQCLKAPVLSDSSCKSSYPGQITGNMICVGFLEGGKDACQGDSGGPVVCNGQLQGIVSSGYGCAQKNKPGVYTKVCNYVNWIQQTIAAN | yes | >90
trypsin variant SEQ ID NO: 58 (protein) IVGGYTCAANSIPYQVSLNSGSHRCGGSLINSQWVVSAAHCYKSRIQVRLGEHNIDVLEGNEQFINAAKIITHPNFNGNTLDNDIMLIKLSSPATLNSRVATVSLPPSCAAAGTECLISGWGNTKSSGSSYPSLLQCLKAPVLSDSSCKSSYPGQITGNMICVGFLEGGKDACQGDSGGPVVCNGQLQGIVSSGYGCAQKNKPGVYTKVCNYVNWIQQTIAAN | yes | >90
